Test results reported in IntAct's records for PubMed 20421493.

B1: Flagellar protein FliT (Salmonella typhimurium), P0A1N2 (parent)
chain: MTSTVEFINRWQRIALLSQSLLELAQRGEWDLLLQQEVSYLQSIETVMEKQTPPGITRSIQDMVAGYIKQTLDNEQLLKGLLQQRLDELSSLIGQSTRQKSLNNAYGRLSGMLLVPDAPGAS
partner: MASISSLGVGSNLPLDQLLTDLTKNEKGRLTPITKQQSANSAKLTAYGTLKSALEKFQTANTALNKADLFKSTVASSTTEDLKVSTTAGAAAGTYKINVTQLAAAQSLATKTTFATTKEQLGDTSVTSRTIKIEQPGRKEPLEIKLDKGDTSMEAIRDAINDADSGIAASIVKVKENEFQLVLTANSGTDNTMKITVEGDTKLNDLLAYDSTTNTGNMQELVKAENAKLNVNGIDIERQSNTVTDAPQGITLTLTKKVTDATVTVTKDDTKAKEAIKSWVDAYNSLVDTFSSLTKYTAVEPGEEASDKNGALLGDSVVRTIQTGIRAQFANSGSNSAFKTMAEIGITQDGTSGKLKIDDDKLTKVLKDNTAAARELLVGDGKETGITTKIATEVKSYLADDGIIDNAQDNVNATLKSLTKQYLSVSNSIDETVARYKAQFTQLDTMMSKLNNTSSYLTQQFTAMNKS

Variants of: B1
Details: with flid_salty fliD

Question: How did the “effect of a mutation on the interaction” value turn out when E75A was run?
Answer: decreasing interaction strength

Question: For K79A, which “effect of a mutation on the interaction” value is on record?
Answer: disrupting interaction strength
